Test results: the NTF2 design screens of Basanta et al. (2020)

experiment: protease stability score; higher = more stable; yeast display proteolysis, trypsin and chymotrypsin;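 also: log10 excess protease needed over predicted unfolded state with 0 meaning unfolded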

Row | Sequence | protease stability score
1 | DHTKQAETVARQMLEQLRDGNPEELKNMFDENVEADIGDTRYHGRESMVEFWQTILTRVDRNRLHIVDVQVQGNKIIVRVRVSFDRNGRQKEEEYVIVVRVNNGHYTADVVSLT | 0.772
2 | DEDEQRTLVEQLARAIQQGDEDQVRKLADPNAKARYGDHEIHGHDQLAHVVRQLKDQVDSIEVESFSVRNGRAELDIRFDVNGRDVKITINAEIRNGRMKHVEFQYTNEDQEKTANR | 0.948
3 | DEKKYEELLREVQKYLYQGNYEEAQKVLAPNVVFEVGDYKMNGLEQVMKYYKKVKDRGAEIHVEEMEVTGHKARVVYKLHVGGRTIEVTAEVKVEDERVKKARVEVSEEYVKHVQHG | 1.61
4 | DETKVKKLVVHVAQVLMSGQVDEAQKFLNPDVEFHAGNVTLHGPEQVLEYYKKIQKRGVEFHVKEAEVHGNTVEVKYDVKFDGTEQTLKFKAEVKDTVVEKAELEIDEDYVRAVQKG | 1.11
5 | DREDLAREMVERLEDIMKHNNEKELVNQMDENVRMTIGDKEYEGREAATKEAHDLFRRADHLRLSVETFNVQGDKAVITFQVVFNHNGRKSHDRVILDFRISGDKVKLVSQTKG | 0.509
6 | DERVHEAFRRFVHALKEGDPDKIRENADEDVRIEVGDTEIQGRETLADRVEEEMKDMQIEYQIDSIKVHGNKAKVNMRVVKNHNGKPETRKFTVHVTFDNGKVKNVHVQDDR | 1.3
7 | DEEDDRRTAKRFAENVMKGNQDEARKLADEDATVNVGDQHVHGREELARVMHDLRRQVDHIQLDSLEVQGNKADINVTMRVNGRHVTADITVTVHNGRVKQFSLNPEVAQEIKR | -0.345
8 | DDHEKANKVVSKLVEANRTGDEKKFVDMADPNVQLNIGDQRVHGREQAEKFARDFHTRFDHLDVKIKDVDVQGEKLELDVKMKVHFDGRTHEINMRLELQRNNGRVKLVRLHIP | 0.097
9 | DEHKHAEQHVKELIDALETGDPEKVRKNADEDVSAVYGDTTLQGTDQVVKAVHDIRNRYDSVRVEIKTVHIQNGRVVVTATVVLNQNGKNDTVSANIQLKVDNGRFKLVHDQLG | 0.739
10 | DEDKNKEAVERFLHNLENGDWQSLADLADKNAKVQIGDETVSGRESAQNELRKFAERVDHVDYHDMTVQGDKFEVVFQEDHNGRKRKVVAEFRVKNGRFKHVVFDDG | -0.008
11 | DDERRARDLFKEHEDNWKNGNHEELVKQADEDARVDVGDKELHGRDDLRRENRRIVEQADHIRFDLKSLDVQGDKVTFDFVVKVDINGRTETRRVQEKFVVTNGRIRLKEATEG | -0.009
12 | DEDASRHVRDMIRALQTGDRDKVARYIDPNATMQVGDKRYHGNERIKEQVKRTKDTMRYHMEIKDVHVEGDHIKVDFTFSNNKNGTPTSDRAQIDIRMTNGHATSIVLHNNK | -0.001
13 | DEEDRKSLHDLNRTGDEDEIAHNVDPNAKLDVGEFKVHGSEQVKKVMEELKKRIDHRHIRSISVRGDKLVARVQIDVNGQTAYYRLIIRVHNGRIKEINADYTSEDDKKAVNEAKS | 0.756
14 | DETASRAAERYMKALQTGDPDEVVKQIDPNVHVRVGDKEVQGKEQFRKKQERDKKQARYHIKHVTFNVEGDKVRVDVIFRKHHNGQPRHDRMEQRMSVRGDKITHQENHKTG | 0.02
15 | DETETMEQMIQDLHRALQQGDHETVKELIPPDAEMQIGDKTWHGKEQVARHLVEHAQTADHIDIDIKSIKIEGNKLVVNLKVVYDRNGHRETQTYELMVDVNNGEFRIVEQRQP | 0.921
16 | DEDAHRRASTLMTAIENNDPHKVMQMFDEDAKVDVGDKRVSGRERQAEEERERNTQSRVRYKSYKIDAQGNKVRVHADFEVHHNGRPDRKRMKAVFNYDNGKIKQATVKDDK | -0.235
17 | DDENRHMAEEMMQIFKHGDHDRHRQLIDPNVKVKIGDKEYHGMEKLVQRHKEEVDQIRFEVKTVSVHNQGDKLKVEWRYVADFNGRPHDVRDDYTIDVRNGKVRSIDYNVDPRELETLLR | -0.128
18 | DETNKEQFDRLLKHQKTGNPQEVVKNADPNVKMRIGNKTWHGRENINQDVERRRRKMRIDINVKSVDSHGEELRIDARVQYNINGKPLEDDVVIIAEVHNGKFKHIEVRIPERMQKKLER | 0.637
19 | DEKALRQFEKFMEAIKNGDEEKVVQLVDPNATVRYGDKKVEGREQIKDQMKKLHEEMRIQVNSVDVEDHNGRAHVRIDVIQEHNGTPDRAQLRANMSASNGRIKDLEFTKTK | -0.148
20 | DSERAKEVVKEFEHNDRQKFRDLFDEDASVTIGNRTYHGRHEVERALKRHIDRVDHVKINSVQIRGERIHMEAVFNINGQEFTLQMTLQLSNGKVKTWVLRVTDPDLKRKLHKNME | 1.15
21 | DSREQEDFRRKVETNNPDQEKKMFDENARLQVGDKTYHGREKVFDFLKTLMDQVDHVHVRDMHVKGDEYSFDIILDINGRRIHITFLARVHNGHIKSQSLRATDESVKDEIEELQG | 0.404
22 | DEHAERIFRKWMTIYKKGDPKKVKELLDPNARVRIGDKRIRGRETAAEQQSTRADEMRNDVKVKHLEVNGDDLVVRIKFTSEENGNPKDQEAKFDWNIHNGKIRSQTQDIKG | -0.017
23 | DEKRMLKVAKEVAEMVRRGDADRVHKYLKEGGRAEVGDTEINGPDQMKEYVKKVKDQGAHNEYKETEYKGDTMTIKTQAHLGDATVDFEVHYQVKGDKVERVEVRFNKEQLKKFKDS | -0.087
24 | DDDLTRKVEKFMRNVQKGNEEELKKMMDPNVHAEVGDKVYHGREDAVEKRVTHYHEQNWRYEDIDLKVEGDRAKAKVVRVVNINGKPIRFEFSVNMRFHNGKITRINNDLPEEVLHKLKR | 0.118
25 | DREVQEHIEQFWKVYRTGDEKRIVELLDPNVKFDYGDRTVEGRETVREEVKKHHDEQRVDFKSVDVKVTNGRIDVKVRAKYHHNGTPDEQKFTASASLNNGRVKHMSRQTSK | -0.181

Row | Sequence | protease stability score
26 | DERHAHTVVKKIIDALHTGDEDTLRHLADKDVRLQVGEKEVHGREEFAKEMSKFHKRVDHMEIKDVTNTGDHASVKYSAKFDGKTFNARADLVVHNGKLKKMHIDPERQKQMDS | 0.535
27 | DHSEVTDVFRKLVKVLRTGDESTAAELFDEDVEFEIGDKTYKGREEAHDLLRQFQDMADHVQLNDVRVQGNKVHAEFRADVNGRELHFTQSAEVHNGKIKKVVIRFTNEEQYREIHS | 1.59
28 | DEHEKQKKAKDAADLIRHNNPERVAELFDEDARVRVGDHTYHGREHIVRVLQTLVDQIDHMQLTDLDVHGETLRLHIVMQINGKKVDMQLDIELKNGKMKRMRFDPDRVRDVQK | 0.466
29 | DERMKKLAEQIVKARRTGDEKQQKELFDEDAHVQIGDKTVHGKENQIETMKKRRDEIRVEIRINSLSVNNGKADISLEQTDDKNGTPKTDVVRATVHATNGRVKEVRYKHDG | -0.156
30 | DEEDFNNAQSMIKDEEQGDEEQITRNLDPNVKIRVGDKRLHGRENYAREVARKARRIRVEVHIRSVSHSGNHIRIDVEVHEQQNGKPDHSRFVVLMHYNNGTVKKAQFDDTD | 0.103
31 | DEEVFDEFIKHMETGDFRYLQRMFDPNAKASVGNKTVHGREQVQTLLEQLHSQVDHYHLKDVDNNENRMRVHFVLNVNGKNIEAENVFEVRNGRLKHLSIKFRNPEDQEDARRRLE | 1.12
32 | DDKQQMEEMLQKYQEALDTGDPEKLASLFDENAEVRIGDKVYRGHEDIKRAAKHLLDNVDHIEIRLRSLETRPGRIHARLQMNVRHNGKNTTKTLHVVARKQGDEFVVEHMEVE | 2.07
33 | DEEQMKKVVEKLVQALRNGNTDEIVRMVKEDVTFKLSDETYRGQEDVRKMAKQLQDKGNKMELKHKEAKGDEAEVVTVWHVGDKTAKLKVRYVVKDDKVEKVQADWSEEVVKAYKHG | 0.122
34 | EEDKLEHMTKLMTQNDEDRWEELADKNVRIEVGDYRVNGREQASSYLKLLKDQVDDYTVNHIHYQGDKIVANVQASVNGRRFRFQIRITVHNGRLKSMMVKVTDEHFKHVLKNIVG | 0.698
35 | DEDNQREANRAAKTGDFKRMAEKADPNVSVTVGDKEVKGREEVHKFVQRFDDQVDDLDIKSFRVEGDKVHVQATAVFNGKKIEFSFSARIHNGKLTKMTVKVRDPRQQKKLQKQWE | 0.004
36 | DEHRQLEEVLSQIQDALRTNNPDDWADQADENAEFNIGDKSFSGREKVREYAETHMKDADHVSMDVRRVDVRNGRARVSARITAKVNGETKDVTYDMVFKFHNGQAKLVQMNES | 0.996
37 | DHDALRHATEILRARKTGDDKRIRELVDPNAHVVIGDKSLHGREQIVKFVTKENEEMSIQYRHVSTETRNGRVDIRMDADMRKNGTPDRVRQEMKAEFHNGRLQRMSVHDDK | -0.331
38 | DEEQVEHAMNRLVQALRSGDEKKLLDLAPEDVKMRIGDREFHGREDFEKAVKEFVDRVDHFQFEDVSIRGDDIFIHVWNQVNGRRHKQVITVKAHNGRMKHMVLDTP | 0.983
39 | DEENVKIFEEFLRAEQTNDPERAKELIDKDVRIRVGDKTYHGREEWVNTFEEQQRHLKVHYKHVDNTHRNGRVHVRMTFDAVTNGEPKEVTARVEAEFHNGKAKDIQVEYRG | -0.257
40 | DEEDQKVFERILEIFKTGDEEEAQKNMDKDVRVQYGDKQLHGRENIARELQTKMNELRYKFSIESVENHNGQVRVNFQFVENHNGRPSRKKAKLVVHFRNGKLRNFEQQDVS | 0.534
41 | DTEELQRLLTLVETNDFETLAKQADENARADVGDHKITGREDITRWAKQLSDRIDHVEVRSLDIQGDKAVAVLQFHVNGRTMVFRVHISAHNGKVKHFQVKVRDENARKQLKRVVD | 0.147
42 | DEETDEKVAKTLMRIMRTGDPKQYADQADEEVRVVVGDQTYTGRESVSEAFEEWTERVDHLEIKDIRVHGEKVNIDAVVDINGHQRKIEFSMTLHNGRIKELVYTDG | -0.598
43 | DEEEWKELNKEISRIDQHGDERDLARLVDENAKIQIGDKTIRGREDLEKQFDRLRDRFDHIQVQHVENQGDKIRVEVVQRHNGRDETHVKTVKLENGRIKHMEMQHK | -0.186
44 | DEDANRKAEEFAQNLRENDEDRLQQLVDPNARLNVGEFSVHGRTELTHQLRRVTREMRVEVQIRDIRVQNGHAHLDIEVVIDHNGKPSSRVLRMVVDFRNGKIQNLDVRTDQ | 0.601
45 | DRKAEKLLEDLLDARRTNDEKKLQDLMDPNVKVDVGNKHYEGRERNAKSYAQEYKQMRLEIRVKSIHNNGNHVIQTFDADVRINGKPIRFRAQMMLHFHNGRVQHVYLRLDPSVEQHRRD | 0.218
46 | DEQENKEIMRRVKEAFEHNDPDMFKKLFDEDATVEVGDKSFQGRDKIKEAMTQFKNQADRVRVDSVNVRGNKVDATVTADFNGKTASFKLEITWHNGKIKHMRINPEDNKKLQG | 0.951
47 | EEENQKLAKKFITAVNKGNPKELNENVDPNARLVIGDKTIHGRETLDRWAKKVKDDMRNHWHVTSLRVSNGDIKADVKVVINHNGKPDDFTLDMTMEVHNGKIKRMDARDSQ | 0.157
48 | DEEEAKKIVETVVKAVENGDVEKLKQMIKEGGKYKVINRERHGPEAVEEVIRLLQKAGVEMEFKEVRVEGNTATTRVEYRHGDKEAEVKVTATMQGGRIDEVRFKMSEEAQKMVEHG | 1.08
49 | DEEKVFQVLVKMVQYYVSGDAEKVKKLGKDDAKVKAVDVEYRGLEQVEKAVEQFKRYGVKLQLTDHKEDGDRVDAKLVLHLGGTTWEFRVTVRADGGKVDELKVEVSDEVMKRIQDG | 0.471
50 | DEQERAERLMEEMVRVLHTGDEKRLQQLADPNARFTIGDTRVHGSDEFARLLREHADNADSMQFRVKSIEVEGNHINIKFSFSVDINGRTESYTANIRIVEKGDKMQFHTQDMK | 0.402
